For test [1], the target named is T1, FcγRIa (human, UniProt P12314 16-292).
T1 construct: extracellular domain; also called FcgRI; 1a; not shown: His tag at the C terminus
In words: SPR (Biacore); He/Con_1a (FcγRIa) divided by He/Con_2b (FcγRIIb). (In general: Surface plasmon resonance follows binding to a sensor surface in real time, without labels.)

The next test deals with T2, FcγRIIb (human, UniProt P31994 43-217).
T2 construct: extracellular domain; also called FcgRIIb; 2b; not shown: His tag at the C terminus
T2 sequence (looked up): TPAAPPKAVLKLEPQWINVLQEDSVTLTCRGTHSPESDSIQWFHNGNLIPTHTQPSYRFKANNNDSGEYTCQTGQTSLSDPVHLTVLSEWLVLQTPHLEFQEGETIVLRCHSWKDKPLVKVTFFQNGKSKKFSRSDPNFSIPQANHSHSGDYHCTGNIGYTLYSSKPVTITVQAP
In words: SPR (Biacore), antibody captured, FcγR as analyte; binding as % of GpH7-A5/GpH7-B3/GpL16-k0.

In test [2] the target is T1, FcγRIa. Described as above.
For test [3], the target named is T3, FcγRIIa R (human FcγRIIa, allotype R, Arg at position 131), extracellular domain with C-terminal His tag (human, UniProt P12318 34-217).
T3 construct: extracellular domain; expressed in FreeStyle293 cells; analyte in Biacore; also called 2aR; FcgRIIa R
T3 sequence (looked up): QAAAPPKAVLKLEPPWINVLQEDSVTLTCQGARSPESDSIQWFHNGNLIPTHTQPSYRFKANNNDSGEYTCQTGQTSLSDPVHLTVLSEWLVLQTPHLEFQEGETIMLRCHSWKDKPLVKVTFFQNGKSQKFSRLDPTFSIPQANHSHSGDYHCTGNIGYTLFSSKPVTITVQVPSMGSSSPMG
In words: SPR (Biacore), relative binding vs GpH7-A5/GpH7-B3/GpL16-k0.

T1 sequence (P12314 16-292): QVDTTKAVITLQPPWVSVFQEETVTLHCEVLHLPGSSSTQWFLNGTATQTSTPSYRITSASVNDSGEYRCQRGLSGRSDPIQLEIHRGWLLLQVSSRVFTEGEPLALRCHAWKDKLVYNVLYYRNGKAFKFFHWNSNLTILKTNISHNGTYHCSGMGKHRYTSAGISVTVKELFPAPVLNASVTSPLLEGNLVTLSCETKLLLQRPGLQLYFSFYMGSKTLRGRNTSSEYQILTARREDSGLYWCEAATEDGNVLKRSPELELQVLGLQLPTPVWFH

B1: GpH7-A5/GpH7-B3 variant K326_07I/GpL16-k0 (antibody, human IgG1, kappa)
heavy 1: not shown
heavy 2: not shown
light: DIVMTQSPLSLPVTPGEPASISCQASESLVHSNRNTYLHWYLQKPGQSPQLLIYKVSNRFSGVPDRFSGSGSGTDFTLKISRVEAEDVGVYYCSQNTHVPPTFGQGTKVEIERTVAAPSVFIFPPSDEQLKSGTASVVCLLNNFYPREAKVQWKVDNALQSGNSQESVTEQDSKDSTYSLSSTLTLSKADYEKHKVYACEVTHQGLSSPVTKSFNRGEC
notes: heterodimerized IgG1; alteration in the GpH7-B3 H chain only; also called He Ab
As for B1, the “Ia/IIb He_1a/2b” value with FcγRIa [1] came out at 0.51 ratio. The He/Con_2b in the test with FcγRIIb is 199 % of control. Further, the He/Con_1a with FcγRIa [2] was 101 % of control.

B2: GpH7-A5/GpH7-B3 variant S337_02A/GpL16-k0 (antibody, human IgG1, kappa)
heavy 1: not shown
heavy 2: not shown
light: DIVMTQSPLSLPVTPGEPASISCQASESLVHSNRNTYLHWYLQKPGQSPQLLIYKVSNRFSGVPDRFSGSGSGTDFTLKISRVEAEDVGVYYCSQNTHVPPTFGQGTKVEIERTVAAPSVFIFPPSDEQLKSGTASVVCLLNNFYPREAKVQWKVDNALQSGNSQESVTEQDSKDSTYSLSSTLTLSKADYEKHKVYACEVTHQGLSSPVTKSFNRGEC
notes: heterodimerized antibody, mutation in one H chain only; also called He Ab
For the molecule B2, the He/Con_2aR in test [3] was 105 relative, control = 100.

B3: GpH7-A5/GpH7-B3 variant K326_10E/GpL16-k0 (antibody, human IgG1, kappa)
heavy 1: not shown
heavy 2: not shown
light: DIVMTQSPLSLPVTPGEPASISCQASESLVHSNRNTYLHWYLQKPGQSPQLLIYKVSNRFSGVPDRFSGSGSGTDFTLKISRVEAEDVGVYYCSQNTHVPPTFGQGTKVEIERTVAAPSVFIFPPSDEQLKSGTASVVCLLNNFYPREAKVQWKVDNALQSGNSQESVTEQDSKDSTYSLSSTLTLSKADYEKHKVYACEVTHQGLSSPVTKSFNRGEC
notes: as for B1
In the case of B3, in the test with FcγRIa [1], the “Ia/IIb He_1a/2b” value is 0.52 ratio. For the same molecule, the He/Con_2b in the test with FcγRIIb was 200 % of control. Besides, the He/Con_1a with FcγRIa [2] was 104 % of control.

B4: GpH7-A5/GpH7-B3 variant P238_15Y/GpL16-k0 (antibody, human IgG1, kappa)
heavy 1: not shown
heavy 2: not shown
light: DIVMTQSPLSLPVTPGEPASISCQASESLVHSNRNTYLHWYLQKPGQSPQLLIYKVSNRFSGVPDRFSGSGSGTDFTLKISRVEAEDVGVYYCSQNTHVPPTFGQGTKVEIERTVAAPSVFIFPPSDEQLKSGTASVVCLLNNFYPREAKVQWKVDNALQSGNSQESVTEQDSKDSTYSLSSTLTLSKADYEKHKVYACEVTHQGLSSPVTKSFNRGEC
notes: as for B2
With B4, the He/Con_2aR in test [3] was 156 relative, control = 100.

B5: GpH7-A5/GpH7-B3 variant K326_09D/GpL16-k0 (antibody, human IgG1, kappa)
heavy 1: not shown
heavy 2: not shown
light: DIVMTQSPLSLPVTPGEPASISCQASESLVHSNRNTYLHWYLQKPGQSPQLLIYKVSNRFSGVPDRFSGSGSGTDFTLKISRVEAEDVGVYYCSQNTHVPPTFGQGTKVEIERTVAAPSVFIFPPSDEQLKSGTASVVCLLNNFYPREAKVQWKVDNALQSGNSQESVTEQDSKDSTYSLSSTLTLSKADYEKHKVYACEVTHQGLSSPVTKSFNRGEC
notes: as for B1
For B5, in the test with FcγRIa [1], the “Ia/IIb He_1a/2b” value was determined as 0.54 ratio. In the test with FcγRIIb, the He/Con_2b is 193 % of control. Besides, the He/Con_1a with FcγRIa [2] was 103 % of control.

B6: GpH7-A5/GpH7-B3 variant K326_15Y/GpL16-k0 (antibody, human IgG1, kappa)
heavy 1: not shown
heavy 2: not shown
light: DIVMTQSPLSLPVTPGEPASISCQASESLVHSNRNTYLHWYLQKPGQSPQLLIYKVSNRFSGVPDRFSGSGSGTDFTLKISRVEAEDVGVYYCSQNTHVPPTFGQGTKVEIERTVAAPSVFIFPPSDEQLKSGTASVVCLLNNFYPREAKVQWKVDNALQSGNSQESVTEQDSKDSTYSLSSTLTLSKADYEKHKVYACEVTHQGLSSPVTKSFNRGEC
notes: as for B1
Regarding B6, in the test with FcγRIa [1], the “Ia/IIb He_1a/2b” value worked out at 0.66 ratio. In addition, in the test with FcγRIIb, the He/Con_2b was 159 % of control. In addition, in the test with FcγRIa [2], the He/Con_1a is 106 % of control.

B7: GpH7-A5/GpH7-B3 variant K326_20W/GpL16-k0 (antibody, human IgG1, kappa)
heavy 1: not shown
heavy 2: not shown
light: DIVMTQSPLSLPVTPGEPASISCQASESLVHSNRNTYLHWYLQKPGQSPQLLIYKVSNRFSGVPDRFSGSGSGTDFTLKISRVEAEDVGVYYCSQNTHVPPTFGQGTKVEIERTVAAPSVFIFPPSDEQLKSGTASVVCLLNNFYPREAKVQWKVDNALQSGNSQESVTEQDSKDSTYSLSSTLTLSKADYEKHKVYACEVTHQGLSSPVTKSFNRGEC
notes: as for B1
Turning to B7, the “Ia/IIb He_1a/2b” value with FcγRIa [1] was 0.69 ratio. Moreover, the He/Con_2b in the test with FcγRIIb is 148 % of control. Further, the He/Con_1a in the test with FcγRIa [2] was 103 % of control.

B8: GpH7-A5/GpH7-B3 variant P238_19Q/GpL16-k0 (antibody, human IgG1, kappa)
heavy 1: not shown
heavy 2: not shown
light: DIVMTQSPLSLPVTPGEPASISCQASESLVHSNRNTYLHWYLQKPGQSPQLLIYKVSNRFSGVPDRFSGSGSGTDFTLKISRVEAEDVGVYYCSQNTHVPPTFGQGTKVEIERTVAAPSVFIFPPSDEQLKSGTASVVCLLNNFYPREAKVQWKVDNALQSGNSQESVTEQDSKDSTYSLSSTLTLSKADYEKHKVYACEVTHQGLSSPVTKSFNRGEC
notes: as for B2
For the molecule B8, the He/Con_2aR in test [3] is 104 relative, control = 100.

B9: GpH7-A5/GpH7-B3 variant P238_16H/GpL16-k0 (antibody, human IgG1, kappa)
heavy 1: not shown
heavy 2: not shown
light: DIVMTQSPLSLPVTPGEPASISCQASESLVHSNRNTYLHWYLQKPGQSPQLLIYKVSNRFSGVPDRFSGSGSGTDFTLKISRVEAEDVGVYYCSQNTHVPPTFGQGTKVEIERTVAAPSVFIFPPSDEQLKSGTASVVCLLNNFYPREAKVQWKVDNALQSGNSQESVTEQDSKDSTYSLSSTLTLSKADYEKHKVYACEVTHQGLSSPVTKSFNRGEC
notes: as for B2
For B9, the He/Con_2aR in test [3] is 122 relative, control = 100.

B10: GpH7-A5/GpH7-B3 variant P238_10E/GpL16-k0 (antibody, human IgG1, kappa)
heavy 1: not shown
heavy 2: not shown
light: DIVMTQSPLSLPVTPGEPASISCQASESLVHSNRNTYLHWYLQKPGQSPQLLIYKVSNRFSGVPDRFSGSGSGTDFTLKISRVEAEDVGVYYCSQNTHVPPTFGQGTKVEIERTVAAPSVFIFPPSDEQLKSGTASVVCLLNNFYPREAKVQWKVDNALQSGNSQESVTEQDSKDSTYSLSSTLTLSKADYEKHKVYACEVTHQGLSSPVTKSFNRGEC
notes: as for B2
As for B10, the He/Con_2aR in test [3] was 151 relative, control = 100.

B11: GpH7-A5/GpH7-B3 variant K326_08L/GpL16-k0 (antibody, human IgG1, kappa)
heavy 1: not shown
heavy 2: not shown
light: DIVMTQSPLSLPVTPGEPASISCQASESLVHSNRNTYLHWYLQKPGQSPQLLIYKVSNRFSGVPDRFSGSGSGTDFTLKISRVEAEDVGVYYCSQNTHVPPTFGQGTKVEIERTVAAPSVFIFPPSDEQLKSGTASVVCLLNNFYPREAKVQWKVDNALQSGNSQESVTEQDSKDSTYSLSSTLTLSKADYEKHKVYACEVTHQGLSSPVTKSFNRGEC
notes: as for B1
Take B11: the “Ia/IIb He_1a/2b” value with FcγRIa [1] was 0.57 ratio. The He/Con_2b in the test with FcγRIIb was 177 % of control. In the test with FcγRIa [2], the He/Con_1a was 100 % of control.

B12: GpH7-A5/GpH7-B3 variant K326_14T/GpL16-k0 (antibody, human IgG1, kappa)
heavy 1: not shown
heavy 2: not shown
light: DIVMTQSPLSLPVTPGEPASISCQASESLVHSNRNTYLHWYLQKPGQSPQLLIYKVSNRFSGVPDRFSGSGSGTDFTLKISRVEAEDVGVYYCSQNTHVPPTFGQGTKVEIERTVAAPSVFIFPPSDEQLKSGTASVVCLLNNFYPREAKVQWKVDNALQSGNSQESVTEQDSKDSTYSLSSTLTLSKADYEKHKVYACEVTHQGLSSPVTKSFNRGEC
notes: as for B1
Regarding B12, the “Ia/IIb He_1a/2b” value in the test with FcγRIa [1] is 0.7 ratio. The He/Con_2b in the test with FcγRIIb was 150 % of control. Also, the He/Con_1a with FcγRIa [2] is 104 % of control.

B13: GpH7-A5/GpH7-B3 variant K326_19Q/GpL16-k0 (antibody, human IgG1, kappa)
heavy 1: not shown
heavy 2: not shown
light: DIVMTQSPLSLPVTPGEPASISCQASESLVHSNRNTYLHWYLQKPGQSPQLLIYKVSNRFSGVPDRFSGSGSGTDFTLKISRVEAEDVGVYYCSQNTHVPPTFGQGTKVEIERTVAAPSVFIFPPSDEQLKSGTASVVCLLNNFYPREAKVQWKVDNALQSGNSQESVTEQDSKDSTYSLSSTLTLSKADYEKHKVYACEVTHQGLSSPVTKSFNRGEC
notes: as for B1
Consider B13, for which the “Ia/IIb He_1a/2b” value with FcγRIa [1] turned out to be 0.73 ratio. Moreover, the He/Con_2b with FcγRIIb was 139 % of control. The He/Con_1a with FcγRIa [2] is 102 % of control.

B14: GpH7-A5/GpH7-B3 variant P271_01G/GpL16-k0 (antibody, human IgG1, kappa)
heavy 1: not shown
heavy 2: not shown
light: DIVMTQSPLSLPVTPGEPASISCQASESLVHSNRNTYLHWYLQKPGQSPQLLIYKVSNRFSGVPDRFSGSGSGTDFTLKISRVEAEDVGVYYCSQNTHVPPTFGQGTKVEIERTVAAPSVFIFPPSDEQLKSGTASVVCLLNNFYPREAKVQWKVDNALQSGNSQESVTEQDSKDSTYSLSSTLTLSKADYEKHKVYACEVTHQGLSSPVTKSFNRGEC
notes: as for B1
Turning to B14, the “Ia/IIb He_1a/2b” value with FcγRIa [1] was found to be 0.54 ratio. The He/Con_2b in the test with FcγRIIb is 193 % of control. Besides, the He/Con_1a in the test with FcγRIa [2] was 105 % of control.

These data come from patent US20180155451A1 (published 2018).
